What all share (experiment): SPR, Fab over captured MICA*008.mIgG2a Ala variant; KD relative to wild type
In one experiment the target is T1, D249A.
T1 construct: % monomer 86.64; also called MICA*008.mIgG2a D249A
T1 chain: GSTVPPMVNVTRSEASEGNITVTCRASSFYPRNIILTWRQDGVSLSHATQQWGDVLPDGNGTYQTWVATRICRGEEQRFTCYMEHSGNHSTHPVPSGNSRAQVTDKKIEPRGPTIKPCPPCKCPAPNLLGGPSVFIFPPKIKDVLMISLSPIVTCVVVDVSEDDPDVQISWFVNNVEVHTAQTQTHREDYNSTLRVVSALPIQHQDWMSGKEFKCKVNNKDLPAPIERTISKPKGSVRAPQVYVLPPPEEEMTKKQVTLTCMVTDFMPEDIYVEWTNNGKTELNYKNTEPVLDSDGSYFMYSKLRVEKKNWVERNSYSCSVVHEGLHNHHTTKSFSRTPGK

The target of a further experiment is T2, P294A.
T2 construct: % monomer 89.16; also called MICA*008.mIgG2a P294A
T2 chain: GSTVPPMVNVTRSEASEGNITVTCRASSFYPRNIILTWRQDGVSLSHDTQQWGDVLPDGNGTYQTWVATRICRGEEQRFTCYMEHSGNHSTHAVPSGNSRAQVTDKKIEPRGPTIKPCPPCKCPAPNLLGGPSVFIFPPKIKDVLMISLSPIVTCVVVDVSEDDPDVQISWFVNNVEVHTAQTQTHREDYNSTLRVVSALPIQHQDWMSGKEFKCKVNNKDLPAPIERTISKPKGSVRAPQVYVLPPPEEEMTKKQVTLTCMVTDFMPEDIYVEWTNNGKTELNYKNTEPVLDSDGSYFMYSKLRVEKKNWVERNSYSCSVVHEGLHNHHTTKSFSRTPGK

The target of a further experiment is T3, R274A.
T3 construct: % monomer 94; also called MICA*008.mIgG2a R274A
T3 chain: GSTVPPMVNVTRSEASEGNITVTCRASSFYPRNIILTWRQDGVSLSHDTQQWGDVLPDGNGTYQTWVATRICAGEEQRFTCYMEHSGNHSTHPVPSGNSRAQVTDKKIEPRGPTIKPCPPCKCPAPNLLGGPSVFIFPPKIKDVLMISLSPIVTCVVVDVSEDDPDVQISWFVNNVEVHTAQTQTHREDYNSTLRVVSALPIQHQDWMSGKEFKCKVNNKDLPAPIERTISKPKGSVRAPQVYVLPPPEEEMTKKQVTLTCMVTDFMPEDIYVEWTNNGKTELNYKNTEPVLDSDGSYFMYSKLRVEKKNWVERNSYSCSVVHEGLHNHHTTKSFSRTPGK

In the next experiment the target is T4, S247A.
T4 construct: % monomer 94.87; also called MICA*008.mIgG2a S247A
T4 chain: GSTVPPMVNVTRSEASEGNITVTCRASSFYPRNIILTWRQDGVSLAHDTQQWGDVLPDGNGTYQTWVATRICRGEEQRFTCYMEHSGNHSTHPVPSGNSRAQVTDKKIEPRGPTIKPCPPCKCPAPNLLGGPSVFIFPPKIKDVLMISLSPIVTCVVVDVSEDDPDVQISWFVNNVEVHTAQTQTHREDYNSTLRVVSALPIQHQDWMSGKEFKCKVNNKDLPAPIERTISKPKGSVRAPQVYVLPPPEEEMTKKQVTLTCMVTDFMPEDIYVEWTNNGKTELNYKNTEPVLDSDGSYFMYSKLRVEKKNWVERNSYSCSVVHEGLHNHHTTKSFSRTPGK

In another experiment the target is T5, E285A.
T5 construct: % monomer 83.78; also called MICA*008.mIgG2a E285A
T5 chain: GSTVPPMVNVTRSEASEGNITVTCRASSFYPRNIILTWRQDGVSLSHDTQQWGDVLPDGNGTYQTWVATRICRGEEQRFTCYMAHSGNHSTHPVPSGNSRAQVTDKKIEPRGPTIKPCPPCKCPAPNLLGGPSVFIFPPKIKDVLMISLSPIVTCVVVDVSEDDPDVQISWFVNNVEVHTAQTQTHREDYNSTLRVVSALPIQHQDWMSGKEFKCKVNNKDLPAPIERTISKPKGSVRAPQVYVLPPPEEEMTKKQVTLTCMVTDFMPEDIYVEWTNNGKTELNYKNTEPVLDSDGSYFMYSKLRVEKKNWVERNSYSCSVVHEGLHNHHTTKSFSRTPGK

The next experiment addresses T6, I236A.
T6 construct: % monomer 92.49; also called MICA*008.mIgG2a I236A
T6 chain: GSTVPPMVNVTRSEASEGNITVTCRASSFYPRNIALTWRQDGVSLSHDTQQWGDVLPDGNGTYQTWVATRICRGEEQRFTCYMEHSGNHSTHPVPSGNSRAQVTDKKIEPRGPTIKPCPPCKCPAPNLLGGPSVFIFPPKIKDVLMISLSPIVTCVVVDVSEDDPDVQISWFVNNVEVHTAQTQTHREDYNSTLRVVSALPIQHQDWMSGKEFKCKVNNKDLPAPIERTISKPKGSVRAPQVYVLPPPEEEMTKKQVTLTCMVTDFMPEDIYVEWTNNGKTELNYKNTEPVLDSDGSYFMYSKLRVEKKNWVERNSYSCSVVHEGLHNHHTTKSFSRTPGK

For a further experiment, the target named is T7, H248A.
T7 construct: % monomer 92.05; also called MICA*008.mIgG2a H248A
T7 chain: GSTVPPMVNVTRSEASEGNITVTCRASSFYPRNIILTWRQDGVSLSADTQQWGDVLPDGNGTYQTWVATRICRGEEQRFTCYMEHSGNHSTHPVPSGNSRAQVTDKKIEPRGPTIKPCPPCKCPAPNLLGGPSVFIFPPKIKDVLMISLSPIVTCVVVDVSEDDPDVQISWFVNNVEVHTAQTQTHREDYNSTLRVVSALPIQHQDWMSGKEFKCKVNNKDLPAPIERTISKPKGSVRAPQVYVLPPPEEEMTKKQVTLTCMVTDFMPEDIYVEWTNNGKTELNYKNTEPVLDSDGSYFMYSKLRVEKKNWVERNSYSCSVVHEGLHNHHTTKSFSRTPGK

B1: 2E5.2.3 Fab (Fab, V domains shown)
VH: QGQMQQSGAELVKPGASVKLSCKTSGFTFSDNYISWLKQKPGQSLEWIAWIYAGTGGTSYNQKFTAKAQLTVDTSSSTAYMQFSSLTTEDSAIYYCARHDYYGTSGAWFAYWGQGTLVTVSA
VL: DVLMTQTPLSLPVSLGDQASLSCRSSQNIVHINGNTYLEWYLQKPGQSPKLLIYKVSNRFSGVPDRFSGSGSGTDFTLKISRVEAEDLGVYYCFQGSHVPWTFGGGTKVEIK
B1: the fold-decrease in affinity with D249A came out at 1; with P294A it was 1; with R274A, 1.1; with S247A it was 1.1; with E285A, 0.9; in the experiment with I236A it was 0.9. The fold-decrease in affinity with H248A was found to be 1.

B2: 1D5 Fab (Fab, V domains shown)
VH: EIQLQQSGPELVKPGASVKVSCKASGYAFTSQNIYWVKQSHGKSLEWIGYIEPYNVVPMYNPKFKGKATLTVDKSSSSAYIHLNSLTSEDSAIYYCARSGSSNFDYWGQGTTLTVSS
VL: EIILTQSPTTMAASPGEKITITCSASSSISSHYLHWYQQKSGFSPKLLIYRTSNLASGVPARFSGSGSGTSYSLTIGTMEAEDVATYYCQQGSSLPLTFGAGTKVEIK
notes: Expressed in E. coli as chimera of murine variable and human constant domains; not shown: human IgG1 CH1 constant domain; human kappa CL constant domain
Regarding B2, the values for the fold-decrease in affinity with P294A and with S247A were 1 and 0.2, respectively.

B3: 6F8.7 Fab (Fab, V domains shown)
VH: DVQLQGSGPGLVKPSQSLSLTCSVTGYSITNDYYWNWIRQFPGNKLEWMGFISFGGSNNYNPSLKNRISITRDTSKNQFFLKLSSVTTEDTATYYCARYDGRGAWFAYWAQGTLVTVSA
VL: DIQMTQSPASLSASVGETVTITCRASGNIHNYLAWYQQKQGKSPQLLVYDAITLADGVPSRFSGSGSGTQYSLKINSLQPEDFGNYYCQHFWSFPLTFGAGTKVEIK
In the case of B3, the fold-decrease in affinity was determined as 0.8 in the experiment with D249A; 0.9 with P294A; 1 in the experiment with R274A; 0.9 with S247A; 3.9 in the experiment with E285A; 1.4 with I236A. Moreover, in the experiment with H248A, the fold-decrease in affinity was 0.6.

B4: 7D4.6 Fab (Fab, V domains shown)
VH: DVQLQESGPGLVKPSQSLSLTCTVTGYSITSDYAWNWIRQFPRNKLEWMGYINYSGTTNYNPSLKSRISITRDTSKNQFFLQLISVTTEDTATYYCSYYRYDGAWFPYWGQGTLVTVSA
VL: DIQMTQSPASLSASVGETVTITCRASGNIHNYLAWYQQKQGKSPQLLVYNAIMLADGVPSRFSASGSGTQYSLKINSLQPEDFGSYYCQHFWSFPLTFGAGTKVEIK
As for B4, the fold-decrease in affinity with D249A worked out at 0.7; in the experiment with P294A, 1; with R274A it was 0.9; with S247A, 0.8; with E285A it was 7.9; with I236A it was 1.2. Further, the fold-decrease in affinity in the experiment with H248A stood at 0.6.

Values taken from patent publication US20200055939A1 (Genentech, published 2020).
